# Results published in the supplement of paper PMC10266784.
# B1: library; numbered along this chain (parent)
# chain: MAAAAAAAAEQQSSNGPVKKSMREKAVERRSVNKEHNSNFKAGYIPIDEDRLHKTGLRGRKGNLAICVIILLFILAVINLIITLVIWAVIRIGPNGCDSMEFHESGLLRFKQVSDMGVIHPLYKSTVGGRRNENLVITGNNQPIVFQQGTTKLSVENNKTSITSDIGMQFFDPRTQNILFSTDYETHEFHLPSGVKSLNVQKASTERITSNATSDLNIKVDGRAIVRGNEGVFIMGKTIEFHMGGNMELKAENSIILNGSVMVSTTRLPSSSSGDQLGSGDWVRYKLCMCADGTLFKVQVTSQNMGCQISDNPCGNTH
# Variants of: B1
# Assay: SGCB cell-surface expression functional score (HA stain, bin4 vs bin1, normalised to synonymous) (log10 ratio); higher = more cell-surface SGCB (functional)
# Outline: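 Codon-saturation libraries of HA-tagged, YFP-fused human beta-sarcoglycan were lentivirally transduced at MOI <0.1 into HEK293 cells stably expressing alpha-, gamma- and delta-sarcoglycan. YFP-positive cells were sorted after 72 hours, grown 5–7 days, stained on ice with Alexa Fluor 647 anti-HA, fixed, sorted into four 5% intensity bins and amplicon-sequenced. The functional score is the log ratio of highest-bin to lowest-bin variant frequency, taken as the median over codons and duplicate transductions. Synonymous variants were scaled per section to mean 0, SD 0.5.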
row,Variant,SGCB cell-surface expression functional score (log10)
1,P269I,0.5
2,P269E,0
3,P269N,0.54
4,P269F,0.8
5,P269L,0.23
6,P269K,0.01
7,P269G,0.44
8,P269Q,0.32
9,P269H,0.32
10,P269M,-0.48
11,P269C,0.49
12,P269A,-0.23
13,P269D,-0.09
14,T265Q,0.21
15,T265I,0.58
16,T265K,0.32
17,T265H,0.75
18,T265S,0.4
19,T265D,0
20,T265W,0.38
21,T265L,0.73
22,T265M,1.41
23,T265E,0.2
24,T265C,-0.3

row,Variant,SGCB cell-surface expression functional score (log10)
1,T265V,0.52
2,T265G,0.47
3,T265P,0.25
4,T265F,0.68
5,T265Y,0.55
6,T265N,0.79
7,T265R,0.4
8,T265A,0
9,T266W,0.59
10,T266R,0.23
11,T266H,0.55
12,T266S,0.4
13,T266Q,1.04
14,T266M,1.39
15,T266L,0.47
16,T266A,0.63
17,T266K,1.15
18,T266Y,0.19
19,T266F,0.7
20,T266E,1.22
21,T266N,0.54
22,T266V,0.35
23,T266I,0.26
24,T266D,0.4

row,Variant,SGCB cell-surface expression functional score (log10)
1,T266G,1.23
2,T266P,0.54
3,T266C,1.12
4,S264L,0.68
5,S264I,0.34
6,S264M,0.69
7,S264A,0.51
8,S264E,0.53
9,S264K,0.5
10,S264D,0.96
11,S264P,0.06
12,S264T,0.31
13,S264G,0.23
14,S264R,0.03
15,S264H,0.22
16,S264Q,0.39
17,S264C,-0.1
18,S264V,0.6
19,S264Y,0.34
20,S264N,-0.3
21,S264F,0.58
22,S264W,-0.2
23,R267K,0.76
24,R267E,-0.053

row,Variant,SGCB cell-surface expression functional score (log10)
1,R267S,0.28
2,R267D,-0.54
3,R267I,-0.11
4,R267P,-0.19
5,R267C,0.16
6,R267F,0.59
7,R267G,0.49
8,R267N,0
9,R267H,0.05
10,R267A,0.63
11,R267W,-0.83
12,R267T,-0.49
13,R267M,-0.73
14,R267Y,0.2
15,R267V,0.49
16,R267L,-0.05
17,R267Q,-0.244
18,S260W,0.61
19,S260Y,-0.87
20,V261M,-0.12
21,V261Q,-1.12
22,V261F,-1.31
23,V261P,-0.15
24,V261D,0.41

row,Variant,SGCB cell-surface expression functional score (log10)
1,V261W,0.306
2,V261N,-0.63
3,V261L,0.42
4,V261Y,-1.15
5,V261A,-0.02
6,V261E,0.05
7,V261S,-0.04
8,V261R,-0.69
9,V261G,-0.18
10,V261I,0.29
11,V261K,-1.55
12,V261T,0.23
13,V261C,0.48
14,V261H,-1.2
15,V263K,-0.87
16,V263G,-0.03
17,V263R,-0.48
18,V263D,-0.53
19,V263I,0.77
20,V263M,-1.03
21,V263S,-0.39
22,V263P,-1.18
23,V263N,0.66
24,V263W,0.52

row,Variant,SGCB cell-surface expression functional score (log10)
1,V263F,0.35
2,V263T,0.4
3,V263Q,-1.36
4,V263L,0.09
5,V263C,1
6,V263Y,0.3
7,V263A,-0.4
8,V263H,0.31
9,V263E,-0.52
10,L268H,0
11,L268R,0.02
12,L268Y,-0.02
13,L268D,0.78
14,L268G,-0.22
15,L268M,0.61
16,L268I,0.38
17,L268K,-1.12
18,L268A,0.63
19,L268Q,-0.01
20,L268E,-0.13
21,L268V,0.2
22,L268T,-0.02
23,L268N,0
24,L268S,0.48

row,Variant,SGCB cell-surface expression functional score (log10)
1,L268P,-0.02
2,L268F,0.46
3,L268C,-0.57
4,L268W,0.53
5,M262P,-0.34
6,M262R,0.7
7,M262N,0
8,M262W,0.08
9,M262C,0.37
10,M262H,1.32
11,M262Y,0.79
12,M262E,0.65
13,M262I,-0.11
14,M262K,0.79
15,M262Q,0.93
16,M262G,0.53
17,M262T,0.19
18,M262D,-0.81
19,M262V,0.78
20,M262F,0.95
21,M262S,0.7
22,M262L,0.57
23,M262A,0.37
